Assay results published in article PMC5932034.

Target: T1, FlhA^C−link (longer FlhA^C construct that includes the linker) (Salmonella enterica serovar Typhimurium ST313), P40729
T1 chain: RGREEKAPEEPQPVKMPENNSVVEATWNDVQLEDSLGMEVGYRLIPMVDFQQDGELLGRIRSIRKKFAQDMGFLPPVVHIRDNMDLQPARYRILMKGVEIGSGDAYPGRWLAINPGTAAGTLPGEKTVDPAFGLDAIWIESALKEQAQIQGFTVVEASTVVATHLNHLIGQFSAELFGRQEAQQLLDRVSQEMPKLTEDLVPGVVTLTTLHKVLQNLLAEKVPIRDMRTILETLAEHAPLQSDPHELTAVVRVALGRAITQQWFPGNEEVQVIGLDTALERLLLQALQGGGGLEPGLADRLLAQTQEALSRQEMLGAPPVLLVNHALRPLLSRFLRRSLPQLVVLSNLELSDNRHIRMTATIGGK
Experiment: SEC-MALS; Superdex 200 10/300 GL; 50 mM NaPi pH 6.8, 0.1 M NaCl, 0.05% NaN3; samples at 0.05–0.5 mM; room temperature
Conditions: remark: other sources report otherwise

B1: FlhA^C−link (longer FlhA^C construct that includes the linker), P40729 328-692 (domain or fragment)
chain: RGREEKAPEEPQPVKMPENNSVVEATWNDVQLEDSLGMEVGYRLIPMVDFQQDGELLGRIRSIRKKFAQDMGFLPPVVHIRDNMDLQPARYRILMKGVEIGSGDAYPGRWLAINPGTAAGTLPGEKTVDPAFGLDAIWIESALKEQAQIQGFTVVEASTVVATHLNHLIGQFSAELFGRQEAQQLLDRVSQEMPKLTEDLVPGVVTLTTLHKVLQNLLAEKVPIRDMRTILETLAEHAPLQSDPHELTAVVRVALGRAITQQWFPGNEEVQVIGLDTALERLLLQALQGGGGLEPGLADRLLAQTQEALSRQEMLGAPPVLLVNHALRPLLSRFLRRSLPQLVVLSNLELSDNRHIRMTATIGGK
  stoichiometry N: 2
